Assay results as given in the supplement of paper PMC7125110.
± gives the standard error. For some assays here: Variants at the floor of the assay were thinned out.

B1: glmS ribozyme (parent)
chain: AUAAAAGCGCCAGAACUACAGAAAUGUAGUUGACGAGGAGGAGGUUUAUCGAAUUUUCGGCGGAUGCCUCCAAA

What was measured:
Conditions in all cases: with glucosamine-6-phosphate
glucosamine-6-phosphate [1] = variants of: B1; experiment: kcat; higher = faster cleavage; RNA array
In short: (§1)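 Barcoded ribozyme variants on sequenced MiSeq chips were transcribed in situ by E. coli RNA polymerase and followed at 37 °C through a hybridised Cy3 probe. Glucosamine-6-phosphate at 40 μM to 10 mM in HEPES/KCl/Mg(OAc)2 buffer was flowed in, and tiles were imaged over ~14 h. Signals were normalised to baseline and to non-cleaving reference variants, and per-tile medians were fit to one- or two-exponential decays to give kobs. Weighted Michaelis–Menten fits across concentrations gave kcat and KM.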

glucosamine-6-phosphate [2] = variants of: B1; experiment: self-cleavage kobs at 40 uM GlcN6P; higher = faster cleavage; RNA array
In short: as §1

glucosamine-6-phosphate [3] = variants of: B1; experiment: self-cleavage kobs at 640 uM GlcN6P; higher = faster cleavage; RNA array
In short: as §1

glucosamine-6-phosphate [4] = variants of: B1; experiment: self-cleavage kobs at 2500 uM GlcN6P; higher = faster cleavage; RNA array
In short: as §1

glucosamine-6-phosphate [5] = variants of: B1; experiment: self-cleavage kobs at 10000 uM GlcN6P; higher = faster cleavage; RNA array
In short: as §1

glucosamine-6-phosphate [6] = variants of: B1; experiment: KM; higher = weaker cofactor use; RNA array
In short: as §1

glucosamine-6-phosphate [7] = variants of: B1; experiment: self-cleavage kobs at 160 uM GlcN6P; higher = faster cleavage; RNA array
In short: as §1

Row | Variant | kcat (glucosamine-6-phosphate [1]) | self-cleavage kobs at 40 uM GlcN6P (glucosamine-6-phosphate [2]) | self-cleavage kobs at 640 uM GlcN6P (glucosamine-6-phosphate [3]) | self-cleavage kobs at 2500 uM GlcN6P (glucosamine-6-phosphate [4]) | self-cleavage kobs at 10000 uM GlcN6P (glucosamine-6-phosphate [5]) | KM (glucosamine-6-phosphate [6]) | self-cleavage kobs at 160 uM GlcN6P (glucosamine-6-phosphate [7])
1 | G29U G41C U54G C70G | 0.0128 ± 0.0056 s⁻¹ | 0.00037 ± 9.8e-05 s⁻¹ | 0.00251 ± 0.00059 s⁻¹ | 0.0068 ± 0.0018 s⁻¹ | 0.0126 ± 0.0039 s⁻¹ |  | 
2 | U30C A33U | 1.74e-05 ± 7.2e-07 s⁻¹ |  |  |  |  | 944 ± 280 µM | 
3 | C16U G44U | 0.000229 ± 2.9e-05 s⁻¹ |  | 7.8e-05 ± 1.7e-05 s⁻¹ | 0.000216 ± 4.3e-05 s⁻¹ | 0.000197 ± 2.3e-05 s⁻¹ | 1160 ± 450 µM | 
4 | U30A U31G | 0.0198 ± 0.0021 s⁻¹ | 0.000379 ± 4.9e-05 s⁻¹ | 0.00508 ± 0.0011 s⁻¹ | 0.00933 ± 0.0019 s⁻¹ | 0.0178 ± 0.003 s⁻¹ | 2040 ± 290 µM | 0.00148 ± 0.00031 s⁻¹
5 | C16U U56G C68G | 5.74e-05 ± 1.5e-05 s⁻¹ |  | 9.61e-05 ± 2.8e-05 s⁻¹ |  | 6.1e-05 ± 1.3e-05 s⁻¹ |  | 
6 | C16U U46C | 0.0025 ± 0.00034 s⁻¹ | 7.03e-05 ± 1.7e-05 s⁻¹ | 0.000646 ± 0.00017 s⁻¹ | 0.00192 ± 0.00029 s⁻¹ | 0.00208 ± 0.00033 s⁻¹ | 1320 ± 290 µM | 0.000295 ± 4.9e-05 s⁻¹
7 | C19A A42G | 0.00828 ± 0.0016 s⁻¹ | 0.00166 ± 0.00056 s⁻¹ | 0.00596 ± 0.0022 s⁻¹ |  |  | 164 ± 59 µM | 
8 | G29U U31C | 0.000449 ± 0.00016 s⁻¹ |  | 9.18e-05 ± 8.9e-06 s⁻¹ | 0.00015 ± 1.8e-05 s⁻¹ | 0.000407 ± 3.7e-05 s⁻¹ |  | 4.01e-05 ± 1.3e-05 s⁻¹
9 | G26A | 0.0116 ± 0.0035 s⁻¹ | 0.00121 ± 0.00035 s⁻¹ | 0.0112 ± 0.0022 s⁻¹ | 0.00852 ± 0.0022 s⁻¹ |  |  | 0.00345 ± 0.0008 s⁻¹
10 | G26U | 0.0318 ± 0.01 s⁻¹ | 0.00112 ± 7.2e-05 s⁻¹ | 0.00931 ± 0.0012 s⁻¹ | 0.0179 ± 0.0032 s⁻¹ | 0.0456 ± 0.0065 s⁻¹ | 1200 ± 480 µM | 0.00324 ± 0.00048 s⁻¹
11 | U30C G59A | < 1e-05 s⁻¹ |  |  |  |  |  | 
12 | C16U U47G A52U | 0.000133 ± 8.3e-06 s⁻¹ |  | 4.73e-05 ± 1.3e-05 s⁻¹ | 8.23e-05 ± 2.3e-05 s⁻¹ | 0.000122 ± 2.5e-05 s⁻¹ | 1230 ± 200 µM | 
13 | U30C C67A | 8.57e-05 ± 7.5e-06 s⁻¹ |  | 7.21e-05 ± 1.3e-05 s⁻¹ | 6.84e-05 ± 1.1e-05 s⁻¹ | 8.63e-05 ± 8.9e-06 s⁻¹ |  | 
14 | G26U C70G | 0.000115 ± 1e-05 s⁻¹ |  | 9.17e-05 ± 1.7e-05 s⁻¹ | 0.000117 ± 1.6e-05 s⁻¹ | 9.26e-05 ± 2.8e-05 s⁻¹ | 142 ± 48 µM | 6.66e-05 ± 1.3e-05 s⁻¹
15 | G26U C70A | 0.000113 ± 4.5e-05 s⁻¹ |  | 6.27e-05 ± 1.2e-05 s⁻¹ | 0.0002 ± 4e-05 s⁻¹ | 0.000106 ± 1.9e-05 s⁻¹ |  | 7.79e-05 ± 2.3e-05 s⁻¹
